In the FLAb antibody collection:

Assay: melting temperature

Row | Sequence | Tm (DSF (SYPRO)) [°C] | Tm (nanoDSF) [°C] | further results
1 | QVKLEESGGGLVQAGGSLRLSCAASERTFSRYPVAWFRQAPGAEREFVAVISSTGTSTYYADSVKGRFTISRDNAKVTVYLQMNNLKREDTAVYFCAVNSQRWRLQDPNEYDYWGQGTQVTVSSGSEQKLISEEDLNHHHHHH | 77.5 | – | –
2 | QVQLQESGGGLVQPGGSLRLSCAASGFTISTTAMSWVRQAPGKGIEWVSTIFASGETTSYADFVQGRFITSRDNTKNTLYLQLNNLKTEDTAMYFCAAADDFGGLNNRYRGQGTQVTVSS | 60.7 | – | –
3 | QVQLQESGGGSVQAGGSLKLSCAASGYIFSSCAMSWYRQAPGKERELVSSITSYGDAAYTDSAKGRFTISRDNAKNTLYLHLNNLKPEDTAVYFCAACPRNKYWGQGTQVTVSS | 68.4 | 63.6 | –
4 | QVQLQESGGGSVQAGGSLKLSCDASTYTYGGKCMGWFRQAPGKEREFVAFIESDGRTSYADSVKGRFTISQDDAKNTVYLQMNSLKPEDTSMYYCKTAAGAFCGTRSYGFWGQGTQVTVSS | 57.2 | 60.8 | –
5 | QVQLQESGGGSVQAGGSLRLPCVASGYIYSPTKMGWFRQAPGKERELVSSITRDGRPYYSDSVKGRFTISQDNAKNTVYLQMNSLKPEDTAMYYCFADVRLSAVGGIKTYWDQGTQVTVSS | 58.6 | 63.3 | –
6 | QVQLQESGGGSVQAGGSLRLSCAASGWTYSTATMGWYRQAPGKERELVSSIFSDENTYYKDSVKGRFTISRDAAKNTVYLQMNSLKPEDTAMYYCYIRPTTSLANWRWGQGTQVTVSS | 59.7 | 63.9 | –
7 | QVQLQESGGGSVQAGGSLRLSCAASGYTYTMGWFRQAPGKEREGVTIIYTGYDNIVYADSVKGRFTISRDNAKNTVYLQMNNLKPEDTAMYHCAAATRGLPRSYFDPGWYDSWGQGTQVTVSS | 62.5 | 70 | –
8 | QVQLQESGGGSVQAGGSLRLSCAVSGYTYSRNCIGWFRQAPGKEREGVAALYTGGGSTYYAASVKGRFTISQDTKNTVYLQMNSLKPEDSAMYYCAANPFGLYTCGDLRGPDFGYWGQGTQVTVSS | 71 | – | –
9 | QVQLQESGGGSVQAGGSLRLSCAVSGYTYSSYSIGWFRQAPGKEREGVAAINSGGSTNYAGSVEGRFTISQDNAKNTVSLLMNSLKPEDTATYYCAVGAFFTLRPTLYNYKGQGTQVTVSS | 48.3 | 53.6 | –
10 | QVQLQESGGGSVQAGGSLRLSCESSGMTFSVYNLGLRQAPGQECELSTITRDGSTDYADSMKGRFTISRDNAKNTMYLQMTSLKPDDTAVYYCAAGVGVVDCTEGQGTQVTVSS | 51.8 | – | –
11 | QVQLQESGGGSVQAGGSLRLSCVASEYDFNSYSSVSVGWFRQAPGKECVLVSRIGNDARTDYSDNVKGRFTISRDNAKRTAYLEMNSLKAEDTAVYYCAANQLSSAVVGTEYPCSKAAFAHWGQGTQVTVSS | 64.8 | 64.5 | –
12 | QVQLVESGGGLVQAGGSLRLSCAASGRTYTMGWFRQAPGKEREFVAAMRWSDTDYADSLKGRFTISRDNANNAMYLQMNSLGPEDTAVYYCAAGEAWLARSTHHYDYWGQGTQVTVSS | – | – | Tm (Circular dichroism): 72.3 °C
13 | QVQLVESGGGLVQAGGSLRLSCAASGYAYTYIYMGWFRQAPGKEREGVAAMDSGGGGTLYADSVKGRFTISRDKGKNTVYLQMDSLKPEDTATYYCAAGGYELRDRTYGQWGQGTQVTVSSAAALEHHHHHH | – | – | Tm (Other): 64.2 °C
14 | QVQLVESGGGLVQAGGSLRLSCAVSGLGAHRVGWFRRAPGKEREFVAAIGANGGNTNYLDSVKGRFTISRDNAKNTIYLQMNSLKPQDTAVYYCAARDIETAEYTYWGQGTQVTVSS | 72.8 | – | –
15 | QVQLVESGGGLVQPGGSLRLSCAASGDTYGSYWMGWFRQAPGQGLEAVAAINRGGGYTVYADSVKGRFTISRDNSKNTLYLQMNSLRAEDTAVYYCAASGVLGGLHEDWFNYWGQGTLVTVSSHHHHHH | – | – | Tm (Circular dichroism): 74 °C
16 | QVQLVESGGGLVQPGGSLRLSCAASGYTYISGWFRQAPGQGLEAVAAIRSSDGTTYYADSVKGRFTISRDNSKNTLYLQMNSLRAEDTAVYYCAATEVAGWPLDIGIYDYWGQGTLVTVSS | – | – | Tm (Circular dichroism): 63.4 °C
17 | QVQLVESGGGSVQAGGSLRLSCAASGSISSITYLGWFRQAPGKEREGVAALSTSSGTTYYADSVKGRFTVSLDNAENTVYLQMNSLKPEDTALYYCAAASSGSSSPLSSSSYTYWGQGTQVTVSS | 95 | – | –
18 | TGGALVQAGGSLRLSCAASETSSVSLSWMGWYRQAPGKERELVAGINRDRPKYKESVKGRFTISRDNAQNTVYLQMNSLKPEDTAVYYCNTVPPRGDYWGQGTQV | – | 65.7 | –
19 | TGGGLVQAGASLRLSCAASGRTFSTDHMGWFRQAPQKEREFVAAINAWSGLSIYYADSVKGRFTISRDNDKKTAYLQMNSLKPEDTAVYYCAAKEMGRGWVPQSSDDYDAWGQGTQV | – | 66.6 | –
20 | TGGGLVQPGGSLRLSCAASGSISSINAMGWYRQAPGKQRELVAAITIRGNTVYGDSVKGRFTVSRDNAKNTVYLQMNSLKPEDTAVYYCNAKSTPSLYAAGYGVDYWGEGTLV | – | 69.8 | –
21 | TGGGWVQAGGSLRLSCAASGRAASGNAMAWFRQAPGKEREFVALISWSGGRPYYANSVKGRFAISRDNATNTVYLQMNRLKPEDTAVYYCAASPTIAILPTPYDYWGQGTQV | – | 75.3 | –
22 | TRVDQTPRTATKETGESLTIICVLTDTSCVLHSTSWFRKNPGTTDWERMSIGGRYVESVNKGAKSFSLRIKDLTVADSATYYCKAQSHEYMEVCPYDWYDGAGTVLTVK | – | – | Tm (Circular dichroism): 55 °C
23 | TRVDQTPRTATKETGESLTINCVLTGTSCSLYSTSWFRKNPGTTDWERISIGGRYVESVNKGAKSFSLRIKDLTVADSATYYCKAQKHCGYDWYDGAGTALTVK | – | – | Tm (Circular dichroism): 72 °C
